Reference: the RNAGym collection of RNA variant scans (doi:10.1093/molbev/msab373)

B1: Azoarcus group I ribozyme (parent)
chain: GUGCCUUGCGCCGGGAAACCACGCAAGGGAUGGUGUCAAAUUCGGCGAAACCUAAGCGCCCGCCCGGGCGUAUGGCAACGCCGAGCCAAGCUUCGGCGCCUGCGCCGAUGAAGGUGUAGAGACUAGACGGCACCCACCUAAGGCAAACGCUAUGGUGAAGGCAUAGUCCAGGGAGUGGCGAAAGUCACACAAACCGG

Variants of: B1
Assay: reverse-splicing fitness (ratio to wild type); higher = more active; in vitro selection; Mg2+ level not given
Summary of the method: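 An in vitro group I ribozyme library with randomized positions was T7-transcribed and gel-purified. In triplicate, 10 pmol RNA in EPPS pH 7.5 was reacted with 50 pmoles of a 30-nt RNA substrate for 1 h at 37 °C across several added MgCl2 levels (1–48 mM), then stopped with EDTA. Products were reverse transcribed from a substrate-complementary primer, PCR-amplified and sequenced (HiSeq 4000). Fitness is a variant's read proportion after selection over that before, normalised to wild type.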

**Q.** For C82U A111U A120C A145U C150G C169A U176C, which reverse-splicing fitness is on record?
**A.** 0.00923

**Q.** For C82U A111U A120C C150U U176C, which reverse-splicing fitness is on record?
**A.** 0.0158

**Q.** For C82U A111U A120C C150U U176A, which reverse-splicing fitness is on record?
**A.** 0.011

**Q.** With C82U A111U A120C C150U U176G as the variant, how does the reverse-splicing fitness read?
**A.** 0.00696

**Q.** With C82U A111U A120C A145G C150A C169A as the variant, how does the reverse-splicing fitness read?
**A.** 0.0103

**Q.** For C82U A111U A120C A145G C150A C169U, which reverse-splicing fitness is on record?
**A.** 0.0104

**Q.** With C82U A111U A120C A145G C150A C169G as the variant, how does the reverse-splicing fitness read?
**A.** 0.00791

**Q.** Which reverse-splicing fitness does the source give for C82U A111U A120C A145U C169G here?
**A.** 0.00727

**Q.** For C82U A111U A120C A145U C169U, which reverse-splicing fitness is on record?
**A.** 0.0107

**Q.** For C82U A111U A120C A145U C169A, which reverse-splicing fitness is on record?
**A.** 0.00631

**Q.** For C82U A111G C150A C169U U176G, which reverse-splicing fitness is on record?
**A.** 0.00684

**Q.** With C82U A111G C150A C169U U176A as the variant, how does the reverse-splicing fitness read?
**A.** 0.0155

**Q.** Which reverse-splicing fitness does the source give for C82U A111G C150A C169U U176C here?
**A.** 0.0161

**Q.** For C82U A111G C150G C169A, which reverse-splicing fitness is on record?
**A.** 0.00812

**Q.** Which reverse-splicing fitness does the source give for C82U A111G C150G C169G here?
**A.** 0.00675

**Q.** Which reverse-splicing fitness does the source give for C82U A111G C150G C169U here?
**A.** 0.00811

**Q.** With C82U A111G C150U C169U U176G as the variant, how does the reverse-splicing fitness read?
**A.** 0.00589

**Q.** Which reverse-splicing fitness does the source give for C82U A111G C150U C169U U176C here?
**A.** 0.0133

**Q.** For C82U A111G C150U C169U U176A, which reverse-splicing fitness is on record?
**A.** 0.0126

**Q.** With C82U A111U A120C A145C C150U C169U U176C as the variant, how does the reverse-splicing fitness read?
**A.** 0.0108

**Q.** Which reverse-splicing fitness does the source give for C82U A111U A120C A145C C150U C169U U176G here?
**A.** 0.00464

**Q.** For C82U A111U A120C A145C C150U C169U U176A, which reverse-splicing fitness is on record?
**A.** 0.015

**Q.** Which reverse-splicing fitness does the source give for C82U A111U A120C A145U C150G C169U U176G here?
**A.** 0.00523

**Q.** With C82U A111U A120C A145U C150G C169U U176C as the variant, how does the reverse-splicing fitness read?
**A.** 0.0122

**Q.** With C82U A111U A120C A145U C150G C169U U176A as the variant, how does the reverse-splicing fitness read?
**A.** 0.00894

**Q.** For C82U A111U A120C A145U C150G U176A, which reverse-splicing fitness is on record?
**A.** 0.00587

**Q.** Which reverse-splicing fitness does the source give for C82U A111U A120C A145U C150G U176C here?
**A.** 0.00709

**Q.** With C82U A111U A120C A145U C150G U176G as the variant, how does the reverse-splicing fitness read?
**A.** 0.00331

**Q.** With C82U A111U A120C C150G U176A as the variant, how does the reverse-splicing fitness read?
**A.** 0.00451

**Q.** Which reverse-splicing fitness does the source give for C82U A111U A120C C150G U176G here?
**A.** 0.00352

**Q.** Which reverse-splicing fitness does the source give for C82U A111U A120C C150G U176C here?
**A.** 0.00725

**Q.** Which reverse-splicing fitness does the source give for C82U A111U A120C C150A C169G here?
**A.** 0.0083

**Q.** Which reverse-splicing fitness does the source give for C82U A111U A120C C150A C169A here?
**A.** 0.00966

**Q.** For C82U A111U A120C C150A C169U, which reverse-splicing fitness is on record?
**A.** 0.0114

**Q.** For C82U A111U A120C A145C C150G C169U U176A, which reverse-splicing fitness is on record?
**A.** 0.0108

**Q.** With C82U A111U A120C A145C C150G C169U U176C as the variant, how does the reverse-splicing fitness read?
**A.** 0.0116

**Q.** With C82U A111U A120C A145C C150G C169U U176G as the variant, how does the reverse-splicing fitness read?
**A.** 0.00477

**Q.** Which reverse-splicing fitness does the source give for C82U A111U A120C A145G C169G U176G here?
**A.** 0.00473

**Q.** Which reverse-splicing fitness does the source give for C82U A111U A120C A145G C169G U176A here?
**A.** 0.0152

**Q.** Which reverse-splicing fitness does the source give for C82U A111U A120C A145G C169G U176C here?
**A.** 0.0209

**Q.** For C82U A111G A145U C169U U176A, which reverse-splicing fitness is on record?
**A.** 0.012

**Q.** For C82U A111G A145U C169U U176C, which reverse-splicing fitness is on record?
**A.** 0.00988

**Q.** Which reverse-splicing fitness does the source give for C82U A111G A145U C169U U176G here?
**A.** 0.00468

**Q.** For C82U A111U A120C A145G C150U C169G U176C, which reverse-splicing fitness is on record?
**A.** 0.016

**Q.** With C82U A111U A120C A145G C150U C169G U176A as the variant, how does the reverse-splicing fitness read?
**A.** 0.0128

**Q.** Which reverse-splicing fitness does the source give for C82U A111U A120C A145G C150U C169G U176G here?
**A.** 0.00514

**Q.** Which reverse-splicing fitness does the source give for C82U A111U A120C A145U C150G C169A here?
**A.** 0.00868

**Q.** With C82U A111U A120C A145U C150G C169U as the variant, how does the reverse-splicing fitness read?
**A.** 0.00819

**Q.** Which reverse-splicing fitness does the source give for C82U A111U A120C A145U C150G C169G here?
**A.** 0.00651

**Q.** For C82U A111G C169A, which reverse-splicing fitness is on record?
**A.** 0.0072

**Q.** Which reverse-splicing fitness does the source give for C82U A111G C169G here?
**A.** 0.0092

**Q.** With C82U A111G C169U as the variant, how does the reverse-splicing fitness read?
**A.** 0.0128

**Q.** Which reverse-splicing fitness does the source give for C82U A111U A120C A145G C169A here?
**A.** 0.0083

**Q.** With C82U A111U A120C A145G C169U as the variant, how does the reverse-splicing fitness read?
**A.** 0.0112

**Q.** With C82U A111U A120C A145G C169G as the variant, how does the reverse-splicing fitness read?
**A.** 0.00779

**Q.** For C82U A111U A120C A145U C150U U176C, which reverse-splicing fitness is on record?
**A.** 0.0147

**Q.** For C82U A111U A120C A145U C150U U176A, which reverse-splicing fitness is on record?
**A.** 0.0114

**Q.** For C82U A111U A120C A145U C150U U176G, which reverse-splicing fitness is on record?
**A.** 0.0051

**Q.** With C82U A111U A120C A145C C150A C169A U176A as the variant, how does the reverse-splicing fitness read?
**A.** 0.00878

**Q.** Which reverse-splicing fitness does the source give for C82U A111U A120C A145C C150A C169A U176C here?
**A.** 0.0057

**Q.** For C82U A111U A120C A145C C150A C169A U176G, which reverse-splicing fitness is on record?
**A.** 0.00538

**Q.** With C82U A111U A120C A145G C150G C169G U176G as the variant, how does the reverse-splicing fitness read?
**A.** 0.00574

**Q.** Which reverse-splicing fitness does the source give for C82U A111U A120C A145G C150G C169G U176C here?
**A.** 0.0112

**Q.** With C82U A111U A120C A145G C150G C169G U176A as the variant, how does the reverse-splicing fitness read?
**A.** 0.00984

**Q.** For C82U A111U A120C A145U C150G C169G U176A, which reverse-splicing fitness is on record?
**A.** 0.00657

**Q.** With C82U A111U A120C A145U C150G C169G U176C as the variant, how does the reverse-splicing fitness read?
**A.** 0.0054

**Q.** With C82U A111U A120C A145U C150G C169G U176G as the variant, how does the reverse-splicing fitness read?
**A.** 0.0048

**Q.** For C82U A111U A120C C169U U176C, which reverse-splicing fitness is on record?
**A.** 0.0164

**Q.** With C82U A111U A120C C169U U176A as the variant, how does the reverse-splicing fitness read?
**A.** 0.0196

**Q.** With C82U A111G C169G U176G as the variant, how does the reverse-splicing fitness read?
**A.** 0.00463

**Q.** With C82U A111G C169G U176A as the variant, how does the reverse-splicing fitness read?
**A.** 0.0159

**Q.** With C82U A111G C169G U176C as the variant, how does the reverse-splicing fitness read?
**A.** 0.0183

**Q.** Which reverse-splicing fitness does the source give for C82U A111U A120C A145C C169A U176A here?
**A.** 0.00868

**Q.** With C82U A111U A120C A145C C169A U176C as the variant, how does the reverse-splicing fitness read?
**A.** 0.00567

**Q.** For C82U A111U A120C A145C C169A U176G, which reverse-splicing fitness is on record?
**A.** 0.00392

**Q.** With C82U A111U A120C A145G C150G C169G as the variant, how does the reverse-splicing fitness read?
**A.** 0.00731

**Q.** With C82U A111U A120C A145G C150G C169A as the variant, how does the reverse-splicing fitness read?
**A.** 0.00919

**Q.** Which reverse-splicing fitness does the source give for C82U A111U A120C A145G C150G C169U here?
**A.** 0.00911

**Q.** Which reverse-splicing fitness does the source give for C82U A111U A120C A145G here?
**A.** 0.03

**Q.** Which reverse-splicing fitness does the source give for C82U A111U A120C A145U here?
**A.** 0.0286

**Q.** Which reverse-splicing fitness does the source give for C82U A111U A120C A145C here?
**A.** 0.0238

**Q.** Which reverse-splicing fitness does the source give for C82U A111U A120C C169G U176C here?
**A.** 0.018

**Q.** Which reverse-splicing fitness does the source give for C82U A111U A120C C169G U176A here?
**A.** 0.0148

**Q.** With C82U A111U A120C C169G U176G as the variant, how does the reverse-splicing fitness read?
**A.** 0.0049
